Data published in patent US20240035036A1 (UNIVERSITE DE GENEVE, published 2024).

T1: FljK flagellin protein from Caulobacter crescentus
T1 chain: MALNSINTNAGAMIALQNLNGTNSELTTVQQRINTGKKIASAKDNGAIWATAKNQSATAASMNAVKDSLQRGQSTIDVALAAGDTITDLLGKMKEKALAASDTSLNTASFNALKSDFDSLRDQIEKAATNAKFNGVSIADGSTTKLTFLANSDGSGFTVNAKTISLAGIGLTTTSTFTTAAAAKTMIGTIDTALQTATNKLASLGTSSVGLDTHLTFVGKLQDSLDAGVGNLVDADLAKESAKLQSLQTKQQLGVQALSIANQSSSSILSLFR

T2: Flagellin Modification Protein (FlmG) from Caulobacter crescentus (Caulobacter crescentus, UniProt P21296 1-596)
T2 construct: Natural full-length glycosyltransferase, expressed in cells (C. crescentus, S. fredii NGR234, E. coli); It has an N-terminal TPR domain and a C-terminal GT-B-like glycosyltransferase domain; also called FlbA; CC_1457
T2 sequence: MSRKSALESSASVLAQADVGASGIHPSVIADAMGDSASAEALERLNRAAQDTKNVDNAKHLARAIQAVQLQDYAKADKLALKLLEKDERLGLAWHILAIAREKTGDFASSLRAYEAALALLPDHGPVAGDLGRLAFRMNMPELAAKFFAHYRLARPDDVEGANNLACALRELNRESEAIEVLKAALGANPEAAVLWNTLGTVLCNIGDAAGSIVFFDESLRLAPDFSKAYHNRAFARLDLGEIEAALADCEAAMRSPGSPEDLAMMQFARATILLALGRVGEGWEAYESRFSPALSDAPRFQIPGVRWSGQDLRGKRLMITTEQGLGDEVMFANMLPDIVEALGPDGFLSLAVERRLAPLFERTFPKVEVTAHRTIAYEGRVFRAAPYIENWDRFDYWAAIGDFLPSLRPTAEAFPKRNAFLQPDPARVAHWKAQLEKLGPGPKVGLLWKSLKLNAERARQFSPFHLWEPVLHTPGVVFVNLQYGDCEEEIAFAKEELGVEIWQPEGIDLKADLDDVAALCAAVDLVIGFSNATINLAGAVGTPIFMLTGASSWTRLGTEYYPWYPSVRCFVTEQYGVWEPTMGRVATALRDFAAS


How the values were obtained:
[1] = target: T1, FljK flagellin protein from Caulobacter …
[2] = target: T2, Flagellin Modification Protein (FlmG) …; assay: summary of example 1 (BACTH and domain analysis)

| Binder | FljK glycosylation (migration on anti-FljK immunoblot) in E. coli co-expressing FljK, FlmG and the synthetic flm operon [1] | flagellin modification (SDS-PAGE mobility shift of FljK by immunoblot) on co-expression in S. fredii NGR234 [1] | binding result [2] |
| --- | --- | --- | --- |
| Flagellin Modification Protein (FlmG) from Caulobacter crescentus (protein) MSRKSALESSASVLAQADVGASGIHPSVIADAMGDSASAEALERLNRAAQDTKNVDNAKHLARAIQAVQLQDYAKADKLALKLLEKDERLGLAWHILAIAREKTGDFASSLRAYEAALALLPDHGPVAGDLGRLAFRMNMPELAAKFFAHYRLARPDDVEGANNLACALRELNRESEAIEVLKAALGANPEAAVLWNTLGTVLCNIGDAAGSIVFFDESLRLAPDFSKAYHNRAFARLDLGEIEAALADCEAAMRSPGSPEDLAMMQFARATILLALGRVGEGWEAYESRFSPALSDAPRFQIPGVRWSGQDLRGKRLMITTEQGLGDEVMFANMLPDIVEALGPDGFLSLAVERRLAPLFERTFPKVEVTAHRTIAYEGRVFRAAPYIENWDRFDYWAAIGDFLPSLRPTAEAFPKRNAFLQPDPARVAHWKAQLEKLGPGPKVGLLWKSLKLNAERARQFSPFHLWEPVLHTPGVVFVNLQYGDCEEEIAFAKEELGVEIWQPEGIDLKADLDDVAALCAAVDLVIGFSNATINLAGAVGTPIFMLTGASSWTRLGTEYYPWYPSVRCFVTEQYGVWEPTMGRVATALRDFAAS | in the presence of pUCITD-flm FljK migration is shifted towards higher molecular weight, as in Caulobacter crescentus wild-type (WT) cells | upon co-expression of FlmG, FljK shifted to a species with higher molecular mass | – |
| FljK flagellin protein from Caulobacter crescentus (other, In the glycosylation experiments it was expressed unfused in cells; also called CC_1461) MALNSINTNAGAMIALQNLNGTNSELTTVQQRINTGKKIASAKDNGAIWATAKNQSATAASMNAVKDSLQRGQSTIDVALAAGDTITDLLGKMKEKALAASDTSLNTASFNALKSDFDSLRDQIEKAATNAKFNGVSIADGSTTKLTFLANSDGSGFTVNAKTISLAGIGLTTTSTFTTAAAAKTMIGTIDTALQTATNKLASLGTSSVGLDTHLTFVGKLQDSLDAGVGNLVDADLAKESAKLQSLQTKQQLGVQALSIANQSSSSILSLFR | – | – | binds |
